The source of these data is patent publication US20210239714A1, “TEST METHOD FOR OLFACTORY MUCOSA OR OLFACTORY MUCUS IN MAMMALS” (Ajinomoto Co., Inc., priority 2018, published 2021).

For the assay, the system named is olfactory receptor (OR X). Kind of assay: Luciferase reporter assay using olfactory receptor-expressing HEK293T cells, effect of concurrent addition of LCN15. Particulars: mixed solution of isovaleric acid (30 μM) and LCN15 (1 μM) compared to isovaleric acid (30 μM) alone; 3 hours, 37° C. It is filed as cell-based, human. From the text: A human olfactory receptor gene was cloned by a PCR method using a human olfactory receptor gene purchased from TrueClone cDNA Clone Collection (OriGene) as a template base on sequence information registered in GenBank. Each gene amplified by the PCR method was subcloned into downstream of a Rho tag sequence of a Rho-pME18S vector (K. Kajiya et al., Journal of Neuroscience, 15 Aug. 2001, 21 (16) 6018-6025, which is incorporated herein by reference in its entirety) using EcoRI and XhoI sites to obtain an expression vector for the human olfactory receptor.
HEK293T cells that expressed the olfactory receptor (OR X) was prepared by the following procedure. […]
The olfactory receptor (OR X) expressed on HEK293T cells is conjugated with Golf to activate adenylate cyclase, thereby increases an amount of intracellular cAMP. In this Example, the measurement for response of the olfactory receptor to a test substance employed luciferase reporter gene assay in which increase of the amount of intracellular cAMP was monitored as increase of a luminescence value derived from firefly luciferase. […] In conjugation with this, a luminescence value derived from Renilla luciferase was used as an internal standard for correcting errors of a gene transfer efficiency and a cell number in each well. […]

B1: lipocalin 15 (protein, listed as Homo sapiens)
chain: MEVLLQPDFNAEKFSGLWYVVSMASDCRVFLGKKDHLSMSTRAIRPTEEGGLHVHMEFPGADGCNQVDAEYLKVGSEGHFRVPALGYLDVRIVDTDYSSFAVLYIYKELEGALSTMVQLYSRTQDVSPQALKSFQDFYPTLGLPKDMMVMLPQSDACNPESKEAP
notes: secreted protein produced in the olfactory mucosa and secreted into the olfactory mucus; recombinant hLCN15 prepared in E. coli
Consider B1, for which the “response intensity of the olfactory receptor (Luc/hRLuc value)” value is on record as “more enhanced”.
